B1: 86 (protein, listed as Sphingopyxis alaskensis)
chain: MALGASVASREASAQMAKAPMRKIATEEAFATPELAKAWLEIARSEPNSSLDIPTGILSIFDNPRPGSNQDRFRRQLLDVDAERIRDMDEAGVDMQLLSVTIPGVQIFEPARAGELAVTTNDHLAAAIARRPTRFAGLACFAPHDPVQATREMERAVNALGLKGFIVNSHTQDLYLDDPRFAPVLEAAQSLDCPIYLHPRAPSNGMAAPFRDYSMGGSIWGFGVEAGTHAVRMILSGVFDRYPRLRIVLGHMGEALPFWMWRLDHMAARRAKDGRMKPLSLAPSEYFKRNFAVTTSGFESPDVLDLVIKVAGIENIMWAIDYPYESSRDAVTFIEGADLTASQRASIFHRNAVRHFRLS
B2: 90 (protein)
chain: MAATIDRVLYLGNATQRRYTSATVSVPRIFGKVALEEHVGTSIWAKYNLTPPANAVVGVLNRPPTLPNTLDTIARLDDINGRLSSMNHSGIGYVIVSLSSPGIQGVHDTALAIKFSTDINDELYLKYANAYPDKFAFFATVPMQDPVAAASELERAVSLLGAKGAAINGYTDIGPPGNSTTRYLDDPINAPFWSKVAALNVPIYLHPRAPPPSQQLVYNYPNNSLSAYPGLVTGGFAYGAETAVHALRLMLSGLFDTHPNIQIILGHAAEGLPFLIHRSDTQLAAEVPGTNGPYKRPLRYYLRNNFYATLSGVRRLSTTQCTLAEMGEERVLFSVDYPFQSNEDAADWFDGVEGMSVETKRKVARGNARRLFNLTVDLDERQIDGDFM
modifications: Pyrenophora tritici-repentis
B3: 84 (protein, listed as Mycobacterium rhodesiae)
chain: MASLIALEEHYAWDPASEGNVVATWLRANNGVAYDRLYDRGPLRIEQMDAAGIDFQILSLFDPGVQDEVDAVRAVDLARRANDDLAESVRANPSRFGGFATLATQQPDAAVAEFDRAVTELGLVGGLINGHCQGRYLDDPAYEALFSRAEALGAPIYLHPTTPHPAVMDAWFAPYVGDGLHLASWGFAAETGTHVLRLIYSGLFDKFPRLQMIIGHLGEMLPFAAYRIDRYYGLGGGGTGHTLQHLPSDYLRNNFHVTTSGNFCSPALDCTLDVMGADRVMFSVDYPMDDNQTGADFLASYPMDDTNRRKVASENALRLFGDRIPAALRN
B4: 83 (protein, listed as Mycobacterium rhodesiae)
chain: MALIALEEHYAWSPVSAGNVVGSWLETHNVTAYQRLYDRGPLRLEQMDAAGIDFQILSLFDPGVQDDDDTARAVENARRANDDLAETVRAAPDRFGGFATLAPQDPDAAAAELERAVGELGLVGGLINGHTHGRYLDDPAYLGLFECAQRLGVPIYLHPTTPHPAVMDAWFAPYVKDGLHLASWGFAAETGTHALRLIYSGLFDTFPRLQMILGHLGEMLPYAAYRIDRYYGLGGGDDGGRLARLPSEYLRDNFHVTTSGNFNPVAFACALDVMGPDRLMFSVDYPMDDNVTGAEFLRNLEVDDDVRRKVAGENALQLFGDKIPRR
B5: 85 (protein, listed as Maritimibacter alkaliphilus)
chain: MAADRKPGLVSVEEGFMIPEVVAELSRIAGGVPSMKSGPIAGPFMDDLLDIGKGRVARMDADGVAVQILALAAPGVQKFDPDTALALSRLTNDRLAEAIAAHPARFGGLAAAPPQAAREGAKELDRAITTLGLNGLIVNSHTNDLYLDDPSFWPLLEAAEALDVPVYLHPREPAAGIEGGLMAMTGFTVGWAYAVETGTHLLRMIAAGVFDRFPRLRIVLGHLGEMIPFMLDRIDNRYPFEMGVTGAKPLPRKPSDYFRDHVTVATSGMNFNAPMRAAIEVLGADKVMFAADYPMERQDEEVAKFAALDLTPDERKRIGEDNARRVFGL

Assay: 14C assay: 14CO2 capture from [14C]-carboxyl-labeled dicamba with IPTG-induced recombinant E. coli cells
Conditions: IPTG-induced recombinant E. coli cells; 14CO2 from [14C]-carboxyl-labeled dicamba

Row | Molecule | Dicamba Decarboxylase Activity
1 | B1 | Low
2 | B2 | Low
3 | B3 | Low
4 | B4 | Low
5 | B5 | Low

Same assay, conditions: dicamba decarboxylation activity

Row | Molecule | Enzymatic Detection level
6 | B1 | Low
7 | B2 | Low
8 | B3 | Low
9 | B4 | Low
10 | B5 | Low

— US20140289906A1, “Compositions Having Dicamba Decarboxylase Activity and Methods of Use” (priority 2013, published 2014)
